Reference: patent US20210380651A1 (SIOLTA THERAPEUTICS, published 2021)

Biological target: T1, IgE-Fc protein having the amino acid sequence set forth in SEQ ID NO: 5 (murine, UniProt P06336 91-421, glycosylated (fully glycosylated IgE-Fc))
T1 construct: Made in HEK293T cells; also called murine IgE-Fc; single domain IgE-Fc; not shown: TEV-His tag (detected with anti-His antibodies)
T1 sequence: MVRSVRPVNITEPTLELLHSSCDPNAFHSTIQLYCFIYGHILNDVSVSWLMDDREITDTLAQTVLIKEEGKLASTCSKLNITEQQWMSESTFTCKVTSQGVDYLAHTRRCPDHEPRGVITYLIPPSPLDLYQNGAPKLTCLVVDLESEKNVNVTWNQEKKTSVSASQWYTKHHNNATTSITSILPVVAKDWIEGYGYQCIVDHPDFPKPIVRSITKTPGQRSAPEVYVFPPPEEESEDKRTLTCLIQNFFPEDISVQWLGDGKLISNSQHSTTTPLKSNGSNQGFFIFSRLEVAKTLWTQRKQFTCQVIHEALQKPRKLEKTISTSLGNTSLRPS
Test: flow cytometry on RBL-2H3 cells, 30 min, APC anti-His detection
Method: Cells of the histamine-releasing rat cell line RBL-2H3 and human peripheral blood mononuclear cells (PBMCs) were treated with the IgE-Fc protein (purified) having the amino acid sequence set forth in SEQ ID NO: 5 and the IgG-Fc-IgE-Fc fusion protein (unpurified, obtained from cell culture supernatant) having the amino acid sequence set forth in SEQ ID NO: 12 for 30 min. Cells were then thoroughly washed and stained with allophycocyanin (APC) conjugated anti-His antibodies and subsequently analyzed by flow cytometry. Anti-His antibodies detected Fc proteins that were bound to the cell surface due to their specific interaction with Fc epsilon Receptor I (FcεRI) and Fc gamma Receptor IIB (FcγRIIB), respectively. IgG-Fc-IgE-Fc proteins were able to bind to both the rat basophil cell line RBL-2H3 as well as to human PBMCs (comprised about 50-70% […], 10-25% T cells, and 20-30% of cells expressing FcgRIIB), even in very low concentrations in which the IgG-Fc-IgE-Fc fusion protein was present (approximately 0.05 mg/mL) in cell culture supernatants compared to purified and highly concentrated IgE-Fc proteins (approximately 1 mg/mL).

B1: Fc epsilon Receptor I (FcεRI) on cells of the rat basophil cell line RBL-2H3 (receptor, UniProt P12371 24-245, looked up)
chain: ATQKSVVSLDPPWIRILTGDKVTLICNGNNSSQMNSTKWIHNDSISNVKSSHWVIVSATIQDSGKYICQKQGFYKSKPVYLNVMQEWLLLQSSADVVLDNGSFDIRCRSWKKWKVHKVIYYKDDIAFKYSYDSNNISIRKATFNDSGSYHCTGYLNKVECKSDKFSIAVVKDYTIEYRWLQLIFPSLAVILFAVDTGLWFSTHKQFESILKIQKTGKGKKKG
notes: whole, on cells; the receptor on cells also has beta and gamma chains; also called FceRI; Fc epsilon receptors
B1: binds.
